Assay results from patent publication US20260049138A1 (Chugai, published 2026).

Target: T1, CD3ε homodimer protein (human, UniProt P07766 23-126, limits assumed)
T1 construct: also called CD3 (CD3ε)
Assay: SPR Biacore T200, CD3ε homodimer on chip;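 also: Light-chain single-residue variant antibodies injected over amine-coupled CD3ε homodimer on a CM4 chip at 25 °C, bound amount divided by that of the GLS3000-containing antibody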

T1 sequence (P07766 23-126 limits assumed): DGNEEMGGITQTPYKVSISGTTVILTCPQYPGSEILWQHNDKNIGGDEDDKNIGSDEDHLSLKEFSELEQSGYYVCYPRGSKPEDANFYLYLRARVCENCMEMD

Binder	ratio of amount bound vs unaltered GLS3000
GLS3000 G91E one-arm antibody (antibody, human IgG1, kappa, L234A L235A, N297A, name in Kabat numbering) heavy: QVQLVESGGGVVQPGRSLRLSCAASGFTFSNAWMHWVRQAPGKGLEWVAQIKAKSNNYATYYAESVKGRFTISRDDSKNSLYLQMNSLKTEDTAVYYCRYVHYGAYYGVDAWGQGTTVTVSSASTKGPSVFPLAPSSKSTSGGTAALGCLVKDYFPEPVTVSWNSGALTSGVHTFPAVLQSSGLYSLSSVVTVPSSSLGTQTYICNVNHKPSNTKVDKKVEPKSCDKTHTCPPCPAPEAAGGPSVFLFPPKPKDTLMISRTPEVTCVVVDVSHEDPEVKFNWYVDGVEVHNAKTKPREEQYASTYRVVSVLTVLHQDWLNGKEYKCKVSNKALPAPIEKTISKAKGQPREPQVYTLPPSRCELTKNQVSLSCAVKGFYPSDIAVEWESNGQPENNYKTTPPVLDSDGSFFLVSKLTVDKSRWQQGNVFSCSVMHEALHNHYTQKSLSLSPDYKDDDDK EPKSSDKTHTCPPCPAPELLGGPSVFLFPPKPKDTLMISRTPEVTCVVVDVSHEDPEVKFNWYVDGVEVHNAKTKPREEQYNSTYRVVSVLTVLHQDWLNGKEYKCKVSNKALPAPIEKTISKAKGQPREPQVCTLPPSRDELTKNQVSLWCLVKGFYPSDIAVEWESNGQPENNYKTTPPVLDSDGSFFLYSKLTVDKSRWQQGNVFSCSVMHEALHNRYTQKSLSLSP light: DIVMTQSPLSLPVTPGEPASISCRSSQSLVHSNRNTYLHWYQQKPGQAPRLLIYKVSNRFSGVPDRFSGSGSGTDFTLKISRVEAEDVGVYYCGQETQVPYTFGQGTKLEIKRTVAAPSVFIFPPSDEQLKSGTASVVCLLNNFYPREAKVQWKVDNALQSGNSQESVTEQDSKDSTYSLSSTLTLSKADYEKHKVYACEVTHQGLSSPVTKSFNRGEC	0.16
GLS3000 G91S one-arm antibody (antibody, human IgG1, kappa, L234A L235A, N297A, name in Kabat numbering) heavy: QVQLVESGGGVVQPGRSLRLSCAASGFTFSNAWMHWVRQAPGKGLEWVAQIKAKSNNYATYYAESVKGRFTISRDDSKNSLYLQMNSLKTEDTAVYYCRYVHYGAYYGVDAWGQGTTVTVSSASTKGPSVFPLAPSSKSTSGGTAALGCLVKDYFPEPVTVSWNSGALTSGVHTFPAVLQSSGLYSLSSVVTVPSSSLGTQTYICNVNHKPSNTKVDKKVEPKSCDKTHTCPPCPAPEAAGGPSVFLFPPKPKDTLMISRTPEVTCVVVDVSHEDPEVKFNWYVDGVEVHNAKTKPREEQYASTYRVVSVLTVLHQDWLNGKEYKCKVSNKALPAPIEKTISKAKGQPREPQVYTLPPSRCELTKNQVSLSCAVKGFYPSDIAVEWESNGQPENNYKTTPPVLDSDGSFFLVSKLTVDKSRWQQGNVFSCSVMHEALHNHYTQKSLSLSPDYKDDDDK EPKSSDKTHTCPPCPAPELLGGPSVFLFPPKPKDTLMISRTPEVTCVVVDVSHEDPEVKFNWYVDGVEVHNAKTKPREEQYNSTYRVVSVLTVLHQDWLNGKEYKCKVSNKALPAPIEKTISKAKGQPREPQVCTLPPSRDELTKNQVSLWCLVKGFYPSDIAVEWESNGQPENNYKTTPPVLDSDGSFFLYSKLTVDKSRWQQGNVFSCSVMHEALHNRYTQKSLSLSP light: DIVMTQSPLSLPVTPGEPASISCRSSQSLVHSNRNTYLHWYQQKPGQAPRLLIYKVSNRFSGVPDRFSGSGSGTDFTLKISRVEAEDVGVYYCGQSTQVPYTFGQGTKLEIKRTVAAPSVFIFPPSDEQLKSGTASVVCLLNNFYPREAKVQWKVDNALQSGNSQESVTEQDSKDSTYSLSSTLTLSKADYEKHKVYACEVTHQGLSSPVTKSFNRGEC	0.26
GLS3000 G91P one-arm antibody (antibody, human IgG1, kappa, L234A L235A, N297A, name in Kabat numbering) heavy: QVQLVESGGGVVQPGRSLRLSCAASGFTFSNAWMHWVRQAPGKGLEWVAQIKAKSNNYATYYAESVKGRFTISRDDSKNSLYLQMNSLKTEDTAVYYCRYVHYGAYYGVDAWGQGTTVTVSSASTKGPSVFPLAPSSKSTSGGTAALGCLVKDYFPEPVTVSWNSGALTSGVHTFPAVLQSSGLYSLSSVVTVPSSSLGTQTYICNVNHKPSNTKVDKKVEPKSCDKTHTCPPCPAPEAAGGPSVFLFPPKPKDTLMISRTPEVTCVVVDVSHEDPEVKFNWYVDGVEVHNAKTKPREEQYASTYRVVSVLTVLHQDWLNGKEYKCKVSNKALPAPIEKTISKAKGQPREPQVYTLPPSRCELTKNQVSLSCAVKGFYPSDIAVEWESNGQPENNYKTTPPVLDSDGSFFLVSKLTVDKSRWQQGNVFSCSVMHEALHNHYTQKSLSLSPDYKDDDDK EPKSSDKTHTCPPCPAPELLGGPSVFLFPPKPKDTLMISRTPEVTCVVVDVSHEDPEVKFNWYVDGVEVHNAKTKPREEQYNSTYRVVSVLTVLHQDWLNGKEYKCKVSNKALPAPIEKTISKAKGQPREPQVCTLPPSRDELTKNQVSLWCLVKGFYPSDIAVEWESNGQPENNYKTTPPVLDSDGSFFLYSKLTVDKSRWQQGNVFSCSVMHEALHNRYTQKSLSLSP light: DIVMTQSPLSLPVTPGEPASISCRSSQSLVHSNRNTYLHWYQQKPGQAPRLLIYKVSNRFSGVPDRFSGSGSGTDFTLKISRVEAEDVGVYYCGQPTQVPYTFGQGTKLEIKRTVAAPSVFIFPPSDEQLKSGTASVVCLLNNFYPREAKVQWKVDNALQSGNSQESVTEQDSKDSTYSLSSTLTLSKADYEKHKVYACEVTHQGLSSPVTKSFNRGEC	0.27
GLS3000 G91T one-arm antibody (antibody, human IgG1, kappa, L234A L235A, N297A, name in Kabat numbering) heavy: QVQLVESGGGVVQPGRSLRLSCAASGFTFSNAWMHWVRQAPGKGLEWVAQIKAKSNNYATYYAESVKGRFTISRDDSKNSLYLQMNSLKTEDTAVYYCRYVHYGAYYGVDAWGQGTTVTVSSASTKGPSVFPLAPSSKSTSGGTAALGCLVKDYFPEPVTVSWNSGALTSGVHTFPAVLQSSGLYSLSSVVTVPSSSLGTQTYICNVNHKPSNTKVDKKVEPKSCDKTHTCPPCPAPEAAGGPSVFLFPPKPKDTLMISRTPEVTCVVVDVSHEDPEVKFNWYVDGVEVHNAKTKPREEQYASTYRVVSVLTVLHQDWLNGKEYKCKVSNKALPAPIEKTISKAKGQPREPQVYTLPPSRCELTKNQVSLSCAVKGFYPSDIAVEWESNGQPENNYKTTPPVLDSDGSFFLVSKLTVDKSRWQQGNVFSCSVMHEALHNHYTQKSLSLSPDYKDDDDK EPKSSDKTHTCPPCPAPELLGGPSVFLFPPKPKDTLMISRTPEVTCVVVDVSHEDPEVKFNWYVDGVEVHNAKTKPREEQYNSTYRVVSVLTVLHQDWLNGKEYKCKVSNKALPAPIEKTISKAKGQPREPQVCTLPPSRDELTKNQVSLWCLVKGFYPSDIAVEWESNGQPENNYKTTPPVLDSDGSFFLYSKLTVDKSRWQQGNVFSCSVMHEALHNRYTQKSLSLSP light: DIVMTQSPLSLPVTPGEPASISCRSSQSLVHSNRNTYLHWYQQKPGQAPRLLIYKVSNRFSGVPDRFSGSGSGTDFTLKISRVEAEDVGVYYCGQTTQVPYTFGQGTKLEIKRTVAAPSVFIFPPSDEQLKSGTASVVCLLNNFYPREAKVQWKVDNALQSGNSQESVTEQDSKDSTYSLSSTLTLSKADYEKHKVYACEVTHQGLSSPVTKSFNRGEC	0.26

Next, values leading:

ratio of amount bound vs unaltered GLS3000	Binder
0.17	GLS3000 G91Y one-arm antibody (antibody, human IgG1, kappa, L234A L235A, N297A, name in Kabat numbering) heavy: QVQLVESGGGVVQPGRSLRLSCAASGFTFSNAWMHWVRQAPGKGLEWVAQIKAKSNNYATYYAESVKGRFTISRDDSKNSLYLQMNSLKTEDTAVYYCRYVHYGAYYGVDAWGQGTTVTVSSASTKGPSVFPLAPSSKSTSGGTAALGCLVKDYFPEPVTVSWNSGALTSGVHTFPAVLQSSGLYSLSSVVTVPSSSLGTQTYICNVNHKPSNTKVDKKVEPKSCDKTHTCPPCPAPEAAGGPSVFLFPPKPKDTLMISRTPEVTCVVVDVSHEDPEVKFNWYVDGVEVHNAKTKPREEQYASTYRVVSVLTVLHQDWLNGKEYKCKVSNKALPAPIEKTISKAKGQPREPQVYTLPPSRCELTKNQVSLSCAVKGFYPSDIAVEWESNGQPENNYKTTPPVLDSDGSFFLVSKLTVDKSRWQQGNVFSCSVMHEALHNHYTQKSLSLSPDYKDDDDK EPKSSDKTHTCPPCPAPELLGGPSVFLFPPKPKDTLMISRTPEVTCVVVDVSHEDPEVKFNWYVDGVEVHNAKTKPREEQYNSTYRVVSVLTVLHQDWLNGKEYKCKVSNKALPAPIEKTISKAKGQPREPQVCTLPPSRDELTKNQVSLWCLVKGFYPSDIAVEWESNGQPENNYKTTPPVLDSDGSFFLYSKLTVDKSRWQQGNVFSCSVMHEALHNRYTQKSLSLSP light: DIVMTQSPLSLPVTPGEPASISCRSSQSLVHSNRNTYLHWYQQKPGQAPRLLIYKVSNRFSGVPDRFSGSGSGTDFTLKISRVEAEDVGVYYCGQYTQVPYTFGQGTKLEIKRTVAAPSVFIFPPSDEQLKSGTASVVCLLNNFYPREAKVQWKVDNALQSGNSQESVTEQDSKDSTYSLSSTLTLSKADYEKHKVYACEVTHQGLSSPVTKSFNRGEC
0.22	GLS3000 H27dD one-arm antibody (antibody, human IgG1, kappa, L234A L235A, N297A, name in Kabat numbering) heavy: QVQLVESGGGVVQPGRSLRLSCAASGFTFSNAWMHWVRQAPGKGLEWVAQIKAKSNNYATYYAESVKGRFTISRDDSKNSLYLQMNSLKTEDTAVYYCRYVHYGAYYGVDAWGQGTTVTVSSASTKGPSVFPLAPSSKSTSGGTAALGCLVKDYFPEPVTVSWNSGALTSGVHTFPAVLQSSGLYSLSSVVTVPSSSLGTQTYICNVNHKPSNTKVDKKVEPKSCDKTHTCPPCPAPEAAGGPSVFLFPPKPKDTLMISRTPEVTCVVVDVSHEDPEVKFNWYVDGVEVHNAKTKPREEQYASTYRVVSVLTVLHQDWLNGKEYKCKVSNKALPAPIEKTISKAKGQPREPQVYTLPPSRCELTKNQVSLSCAVKGFYPSDIAVEWESNGQPENNYKTTPPVLDSDGSFFLVSKLTVDKSRWQQGNVFSCSVMHEALHNHYTQKSLSLSPDYKDDDDK EPKSSDKTHTCPPCPAPELLGGPSVFLFPPKPKDTLMISRTPEVTCVVVDVSHEDPEVKFNWYVDGVEVHNAKTKPREEQYNSTYRVVSVLTVLHQDWLNGKEYKCKVSNKALPAPIEKTISKAKGQPREPQVCTLPPSRDELTKNQVSLWCLVKGFYPSDIAVEWESNGQPENNYKTTPPVLDSDGSFFLYSKLTVDKSRWQQGNVFSCSVMHEALHNRYTQKSLSLSP light: DIVMTQSPLSLPVTPGEPASISCRSSQSLVDSNRNTYLHWYQQKPGQAPRLLIYKVSNRFSGVPDRFSGSGSGTDFTLKISRVEAEDVGVYYCGQGTQVPYTFGQGTKLEIKRTVAAPSVFIFPPSDEQLKSGTASVVCLLNNFYPREAKVQWKVDNALQSGNSQESVTEQDSKDSTYSLSSTLTLSKADYEKHKVYACEVTHQGLSSPVTKSFNRGEC
